In IntAct's records for PubMed 22960633:

Legend:
gnat1_human GNAT1 = gnat1_human GNAT1 (UniProt P11488)
arl3_mouse Arl3 = arl3_mouse Arl3 (UniProt Q9WUL7)
Chain of arl3_mouse Arl3 (Q9WUL7 whole entry): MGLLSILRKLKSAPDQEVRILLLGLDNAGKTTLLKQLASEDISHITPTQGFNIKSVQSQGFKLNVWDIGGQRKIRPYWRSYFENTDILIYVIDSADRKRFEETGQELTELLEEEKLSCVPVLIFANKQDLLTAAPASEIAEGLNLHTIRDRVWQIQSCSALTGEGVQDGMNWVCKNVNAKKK

Chain of gnat1_human GNAT1 (P11488 whole entry): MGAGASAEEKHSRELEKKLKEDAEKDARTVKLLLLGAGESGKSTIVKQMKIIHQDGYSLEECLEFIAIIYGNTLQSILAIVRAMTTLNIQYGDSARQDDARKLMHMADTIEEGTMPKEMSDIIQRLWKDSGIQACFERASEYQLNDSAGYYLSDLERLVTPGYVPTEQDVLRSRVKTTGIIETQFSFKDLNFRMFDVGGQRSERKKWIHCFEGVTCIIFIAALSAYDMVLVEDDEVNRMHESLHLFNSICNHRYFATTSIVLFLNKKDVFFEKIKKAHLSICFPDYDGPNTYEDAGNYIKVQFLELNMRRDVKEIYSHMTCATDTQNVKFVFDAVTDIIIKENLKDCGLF

## Protein unc-119 homolog A (Homo sapiens) (from UniProt Q13432) Y194A
gnat1_human GNAT1
  effect of a mutation on the interaction: decreasing interaction
arl3_mouse Arl3
  effect of a mutation on the interaction: decreasing interaction
